{"source": "IntAct's records for PubMed 22252131", "key": {"hakai_mouse Cbll1 [1]": {"target": "hakai_mouse Cbll1 (UniProt Q9JIY2)", "sequence (Q9JIY2 whole entry)": "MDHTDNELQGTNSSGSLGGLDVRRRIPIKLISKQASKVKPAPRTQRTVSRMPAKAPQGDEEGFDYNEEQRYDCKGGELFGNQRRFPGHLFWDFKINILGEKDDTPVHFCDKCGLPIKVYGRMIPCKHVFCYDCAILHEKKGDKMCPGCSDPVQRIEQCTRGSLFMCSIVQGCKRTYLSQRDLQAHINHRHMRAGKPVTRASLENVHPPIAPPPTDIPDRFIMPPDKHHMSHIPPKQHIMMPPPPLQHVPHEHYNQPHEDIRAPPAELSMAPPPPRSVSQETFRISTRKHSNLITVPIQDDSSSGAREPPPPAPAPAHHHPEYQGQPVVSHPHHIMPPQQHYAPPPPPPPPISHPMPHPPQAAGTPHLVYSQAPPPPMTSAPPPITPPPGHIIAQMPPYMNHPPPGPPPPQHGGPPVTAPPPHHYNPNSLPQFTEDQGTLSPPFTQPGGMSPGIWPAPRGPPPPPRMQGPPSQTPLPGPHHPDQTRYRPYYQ"}, "hakai_mouse Cbll1 [2]": {"target": "hakai_mouse Cbll1 (UniProt Q9JIY2)", "remark": "listed apart in the source"}, "hakai_mouse Cbll1 [3]": {"target": "hakai_mouse Cbll1 (UniProt Q9JIY2)", "remark": "listed apart in the source"}, "hakai_mouse Cbll1 [4]": {"target": "hakai_mouse Cbll1 (UniProt Q9JIY2)", "remark": "listed apart in the source"}}, "data": [{"substance": "Src substrate cortactin (Mus musculus), Q60598 Y482F", "values": [{"measurement": "effect of a mutation on the interaction", "setting": "hakai_mouse Cbll1 [1]", "value": "disrupting interaction"}]}, {"substance": "Src substrate cortactin (Mus musculus), Q60598 D480A", "values": [{"measurement": "effect of a mutation on the interaction", "setting": "hakai_mouse Cbll1 [2]", "value": "decreasing interaction"}]}, {"substance": "Src substrate cortactin (Mus musculus), Q60598 E486A", "values": [{"measurement": "effect of a mutation on the interaction", "setting": "hakai_mouse Cbll1 [3]", "value": "disrupting interaction"}]}, {"substance": "Src substrate cortactin (Mus musculus), Q60598 E478A", "values": [{"measurement": "effect of a mutation on the interaction", "setting": "hakai_mouse Cbll1 [4]", "value": "decreasing interaction"}]}]}
